The text below walks through data of US5597705.

The test system of data set [1] is thyroid hormone (T3) receptor, GC2 nuclear extract (Rattus norvegicus). Kind of data set: pulldown. The settings on record: equilibrium binding constant by ABCD assay; buffer A, poly(dI-dC), 22 C.
Data set [2] shares this test system. Kind of data set: cell_activity. The settings on record: G29TK one copy, T3 stimulation of CAT in GC2 cells; three copies five-fold.
For data set [3], the system named is glucocorticoid receptor alpha (hGR, pRShGR-alpha) (Homo sapiens). Kind of data set: cell_activity. The following applies: CAT activity with DEX in CV-1 cells; wild-type reference.

As a reminder, the Kd is a measure of binding affinity in units of concentration. High values mean lower affinity, low ones higher affinity. G209-146 (rat GH -209 to -146) showed a dissociation constant Kd in data set [1] of 1.4 nM. Take G186-158 (rat GH -186 to -158): the activity in data set [2] was determined as 2.9 fold. In data set [3], MMTV LTR (GMCAT) returned an activity of 100%.
